Experiments:
FGFR3 = FGFR3 (UniProt P22607); assay: phosphorylation enrichment, bacterial display (enrichment ratio); higher = better substrate or ligand; peptides without Tyr show the background
EPHB1 = EPHB1 (UniProt P54762); assay: as above
EPHB2 = EPHB2 (UniProt P29323); assay: as above
AncSZ = assay: as above
FGFR1 = FGFR1 (UniProt P11362); assay: as above
Hck = Hck (UniProt P08631); assay: as above
Jak2 = Jak2 (UniProt O60674); assay: as above
Fer (mouse) = assay: as above
c-Abl (mouse) = assay: as above
Fyn = Fyn (UniProt P06241); assay: as above
c-Src = assay: as above
Fes = Fes (UniProt P07332); assay: as above
MERTK = MERTK (UniProt Q12866); assay: as above
c-Src SH2 = assay: SH2 binding enrichment of the phosphorylated peptide, bacterial display (enrichment ratio); higher = better substrate or ligand; peptides without Tyr show the background
Grb2 SH2 = Grb2 SH2 (UniProt P62993); assay: as above
SHP2-C SH2 = assay: as above
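Throughout, for SH2 binding enrichment of the phosphorylated peptide, bacterial display: peptide library displayed on the E. coli surface as eCPX fusions, selected cells deep-sequenced, score is each peptide's frequency after selection divided by its frequency in the input.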
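Throughout, for phosphorylation enrichment, bacterial display: 11-residue human phosphosite peptides and single-mutation variants displayed on the E. coli surface, counted by deep sequencing, each peptide's frequency after selection divided by its frequency in the unselected input library; frequency after pTyr selection over input frequency; kinase dosed for 20-30% of maximal phosphorylation in three min.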

Hck, sequence (P08631 whole entry, looked up): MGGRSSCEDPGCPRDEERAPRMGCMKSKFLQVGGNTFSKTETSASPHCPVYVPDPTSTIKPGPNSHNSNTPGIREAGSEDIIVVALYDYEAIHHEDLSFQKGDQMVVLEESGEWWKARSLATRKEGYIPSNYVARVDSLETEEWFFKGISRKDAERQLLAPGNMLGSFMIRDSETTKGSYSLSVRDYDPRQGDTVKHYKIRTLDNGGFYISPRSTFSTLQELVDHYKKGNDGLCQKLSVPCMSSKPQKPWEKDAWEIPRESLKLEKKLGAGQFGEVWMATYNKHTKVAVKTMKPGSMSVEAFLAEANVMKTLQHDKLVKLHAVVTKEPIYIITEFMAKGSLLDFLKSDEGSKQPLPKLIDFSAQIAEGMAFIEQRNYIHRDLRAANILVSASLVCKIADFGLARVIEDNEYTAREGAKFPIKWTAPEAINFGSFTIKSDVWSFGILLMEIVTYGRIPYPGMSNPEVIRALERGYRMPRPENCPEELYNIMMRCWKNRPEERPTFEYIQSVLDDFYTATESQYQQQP
Fes, sequence (P07332 whole entry, looked up): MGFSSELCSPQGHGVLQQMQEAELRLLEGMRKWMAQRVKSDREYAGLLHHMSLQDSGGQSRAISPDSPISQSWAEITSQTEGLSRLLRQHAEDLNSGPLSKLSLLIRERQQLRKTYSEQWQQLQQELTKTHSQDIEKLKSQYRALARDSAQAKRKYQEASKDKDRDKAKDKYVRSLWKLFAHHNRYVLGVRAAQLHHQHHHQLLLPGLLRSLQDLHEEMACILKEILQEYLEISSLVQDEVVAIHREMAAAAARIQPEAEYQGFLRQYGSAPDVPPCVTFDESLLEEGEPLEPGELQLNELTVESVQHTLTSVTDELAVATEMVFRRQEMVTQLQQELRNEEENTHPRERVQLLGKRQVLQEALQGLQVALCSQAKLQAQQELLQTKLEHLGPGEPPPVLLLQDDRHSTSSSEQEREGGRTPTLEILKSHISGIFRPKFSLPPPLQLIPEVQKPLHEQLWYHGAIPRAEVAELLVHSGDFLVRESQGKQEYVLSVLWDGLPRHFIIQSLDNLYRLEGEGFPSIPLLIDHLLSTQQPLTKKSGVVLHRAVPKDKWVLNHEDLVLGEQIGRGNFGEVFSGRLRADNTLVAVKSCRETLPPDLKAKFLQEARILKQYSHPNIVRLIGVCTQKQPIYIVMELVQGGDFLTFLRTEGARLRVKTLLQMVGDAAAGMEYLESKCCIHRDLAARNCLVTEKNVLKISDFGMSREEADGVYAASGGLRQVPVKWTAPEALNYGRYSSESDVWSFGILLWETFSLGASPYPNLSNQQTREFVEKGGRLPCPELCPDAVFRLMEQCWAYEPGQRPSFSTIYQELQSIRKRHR
FGFR1, sequence (P11362 whole entry, looked up): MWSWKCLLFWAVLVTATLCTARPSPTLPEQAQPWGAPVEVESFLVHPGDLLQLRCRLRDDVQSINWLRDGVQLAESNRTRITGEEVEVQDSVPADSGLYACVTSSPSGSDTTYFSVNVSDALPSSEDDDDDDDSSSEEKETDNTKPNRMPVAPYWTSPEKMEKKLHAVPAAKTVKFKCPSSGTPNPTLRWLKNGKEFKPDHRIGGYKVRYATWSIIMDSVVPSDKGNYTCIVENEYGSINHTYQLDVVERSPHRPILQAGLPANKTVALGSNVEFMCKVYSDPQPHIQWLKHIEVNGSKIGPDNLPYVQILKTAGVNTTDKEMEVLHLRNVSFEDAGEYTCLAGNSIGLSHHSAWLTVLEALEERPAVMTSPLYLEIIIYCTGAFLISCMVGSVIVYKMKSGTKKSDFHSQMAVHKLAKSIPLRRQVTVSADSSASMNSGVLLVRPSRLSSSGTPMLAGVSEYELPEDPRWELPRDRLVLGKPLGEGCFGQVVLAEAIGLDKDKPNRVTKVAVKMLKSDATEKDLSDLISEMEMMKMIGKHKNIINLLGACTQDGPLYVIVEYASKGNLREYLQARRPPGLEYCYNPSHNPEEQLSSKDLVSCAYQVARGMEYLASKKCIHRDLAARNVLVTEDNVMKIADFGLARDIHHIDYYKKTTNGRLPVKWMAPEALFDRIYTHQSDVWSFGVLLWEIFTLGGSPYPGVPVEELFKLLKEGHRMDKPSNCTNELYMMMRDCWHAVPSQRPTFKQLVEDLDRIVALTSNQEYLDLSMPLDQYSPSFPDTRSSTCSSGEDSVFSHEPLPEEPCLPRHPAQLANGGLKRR
EPHB2, sequence (P29323 whole entry, looked up): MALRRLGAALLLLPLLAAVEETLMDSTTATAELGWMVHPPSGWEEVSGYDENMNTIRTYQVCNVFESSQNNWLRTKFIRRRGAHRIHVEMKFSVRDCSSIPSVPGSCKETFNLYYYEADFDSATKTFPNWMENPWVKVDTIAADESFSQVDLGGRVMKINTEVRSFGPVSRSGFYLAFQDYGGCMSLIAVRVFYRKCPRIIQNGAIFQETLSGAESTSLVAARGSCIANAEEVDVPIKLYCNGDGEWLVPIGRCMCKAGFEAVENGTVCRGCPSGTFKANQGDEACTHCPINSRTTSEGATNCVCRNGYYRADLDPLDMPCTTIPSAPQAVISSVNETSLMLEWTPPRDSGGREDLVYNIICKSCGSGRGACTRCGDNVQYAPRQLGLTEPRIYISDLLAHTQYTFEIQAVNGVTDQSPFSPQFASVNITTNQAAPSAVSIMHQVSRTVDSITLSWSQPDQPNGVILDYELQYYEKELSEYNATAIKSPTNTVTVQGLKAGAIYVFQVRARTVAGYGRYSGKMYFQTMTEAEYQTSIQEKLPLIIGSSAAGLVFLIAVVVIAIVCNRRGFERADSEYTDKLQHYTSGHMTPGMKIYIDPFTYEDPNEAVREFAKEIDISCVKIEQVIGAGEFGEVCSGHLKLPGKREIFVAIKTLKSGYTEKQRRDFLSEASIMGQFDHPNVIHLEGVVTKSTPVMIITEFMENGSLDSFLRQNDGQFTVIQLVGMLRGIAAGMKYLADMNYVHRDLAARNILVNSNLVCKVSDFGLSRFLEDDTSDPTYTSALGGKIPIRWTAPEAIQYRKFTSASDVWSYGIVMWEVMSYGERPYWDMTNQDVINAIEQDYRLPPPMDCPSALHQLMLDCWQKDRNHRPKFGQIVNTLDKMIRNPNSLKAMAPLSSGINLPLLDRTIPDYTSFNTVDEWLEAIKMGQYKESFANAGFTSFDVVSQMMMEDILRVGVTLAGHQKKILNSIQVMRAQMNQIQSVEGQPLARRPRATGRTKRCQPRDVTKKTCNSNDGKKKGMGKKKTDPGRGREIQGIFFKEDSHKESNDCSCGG
FGFR3, sequence (P22607 whole entry, looked up): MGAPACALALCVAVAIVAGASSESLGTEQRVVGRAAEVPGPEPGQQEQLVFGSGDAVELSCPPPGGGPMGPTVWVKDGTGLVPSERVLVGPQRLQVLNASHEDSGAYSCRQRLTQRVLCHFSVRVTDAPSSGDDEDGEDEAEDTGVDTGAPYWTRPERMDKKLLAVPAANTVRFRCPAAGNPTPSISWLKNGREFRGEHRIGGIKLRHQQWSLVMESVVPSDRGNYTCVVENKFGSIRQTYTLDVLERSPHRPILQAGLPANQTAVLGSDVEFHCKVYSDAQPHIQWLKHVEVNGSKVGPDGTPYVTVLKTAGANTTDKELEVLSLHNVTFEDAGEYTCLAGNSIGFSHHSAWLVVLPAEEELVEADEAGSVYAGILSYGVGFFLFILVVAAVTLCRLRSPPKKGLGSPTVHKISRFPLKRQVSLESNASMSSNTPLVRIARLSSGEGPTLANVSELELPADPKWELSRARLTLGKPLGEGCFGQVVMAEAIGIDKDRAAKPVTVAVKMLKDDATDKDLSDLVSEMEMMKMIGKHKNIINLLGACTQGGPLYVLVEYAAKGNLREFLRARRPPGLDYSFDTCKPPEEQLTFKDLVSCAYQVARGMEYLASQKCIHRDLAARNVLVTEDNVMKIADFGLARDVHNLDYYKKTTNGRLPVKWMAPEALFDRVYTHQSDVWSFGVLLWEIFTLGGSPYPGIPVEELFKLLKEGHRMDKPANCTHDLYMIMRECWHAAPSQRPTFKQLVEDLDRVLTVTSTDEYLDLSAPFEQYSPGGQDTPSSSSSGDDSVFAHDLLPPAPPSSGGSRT
MERTK, sequence (Q12866 whole entry, looked up): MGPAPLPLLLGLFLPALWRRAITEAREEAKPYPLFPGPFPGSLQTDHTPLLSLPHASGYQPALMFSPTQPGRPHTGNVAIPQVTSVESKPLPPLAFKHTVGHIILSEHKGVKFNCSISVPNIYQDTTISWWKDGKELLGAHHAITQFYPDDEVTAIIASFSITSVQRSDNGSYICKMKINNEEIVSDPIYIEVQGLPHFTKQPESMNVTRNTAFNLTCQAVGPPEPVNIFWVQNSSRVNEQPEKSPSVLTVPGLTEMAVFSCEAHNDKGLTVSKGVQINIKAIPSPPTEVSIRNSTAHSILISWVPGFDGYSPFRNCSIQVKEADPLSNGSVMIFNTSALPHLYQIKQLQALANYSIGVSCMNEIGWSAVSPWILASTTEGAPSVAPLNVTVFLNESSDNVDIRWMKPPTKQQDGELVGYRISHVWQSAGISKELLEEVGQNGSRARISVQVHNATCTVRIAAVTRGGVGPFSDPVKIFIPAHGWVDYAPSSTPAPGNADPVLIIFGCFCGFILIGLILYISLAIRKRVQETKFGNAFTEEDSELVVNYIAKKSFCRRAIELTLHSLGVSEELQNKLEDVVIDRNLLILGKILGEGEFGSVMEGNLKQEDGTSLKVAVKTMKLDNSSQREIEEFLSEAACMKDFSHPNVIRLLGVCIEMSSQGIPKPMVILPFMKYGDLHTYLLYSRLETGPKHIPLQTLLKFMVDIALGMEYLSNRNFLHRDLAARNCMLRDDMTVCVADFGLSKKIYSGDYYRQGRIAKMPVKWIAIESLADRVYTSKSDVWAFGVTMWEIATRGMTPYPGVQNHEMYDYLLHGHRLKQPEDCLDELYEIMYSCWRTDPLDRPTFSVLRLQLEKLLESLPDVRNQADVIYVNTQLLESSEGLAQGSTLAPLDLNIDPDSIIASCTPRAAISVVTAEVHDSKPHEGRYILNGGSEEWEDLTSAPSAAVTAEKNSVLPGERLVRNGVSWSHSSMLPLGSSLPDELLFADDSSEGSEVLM

SH2 binding enrichment (c-Src SH2) | SH2 binding enrichment (Grb2 SH2) | SH2 binding enrichment (SHP2-C SH2) | Sequence | phosphorylation enrichment (FGFR3) | phosphorylation enrichment (EPHB1) | phosphorylation enrichment (EPHB2) | phosphorylation enrichment (AncSZ) | phosphorylation enrichment (FGFR1) | phosphorylation enrichment (Hck) | phosphorylation enrichment (Jak2) | phosphorylation enrichment (Fer (mouse)) | phosphorylation enrichment (c-Abl (mouse)) | phosphorylation enrichment (Fyn) | phosphorylation enrichment (c-Src) | phosphorylation enrichment (Fes) | phosphorylation enrichment (MERTK)
0.668 | 0.943 | 0.747 | VTQEQYELFCE [CBL_Y368_YF] | 0.957 | 0.86 | 0.848 | 1.4 | 0.543 | 0.646 | 1.54 | 0.737 | 3.12 | 0.599 | 0.744 | 1.24 | 0.624
0.367 | 0.61 | 0.491 | ANNEYYFQVCA | 7.38 | 0.957 | 0.768 | 2.03 | 8.62 | 0.706 | 1.68 | 0.614 | 1.01 | 0.607 | 0.892 | 1.5 | 0.73
1.01 | 1.53 | 1.02 | LFLALYTGLVR [PIGB_Y402_H407R] | 0.747 | 0.628 | 0.573 | 1.31 | 0.452 | 1.59 | 1.18 | 0.539 | 0.896 | 0.82 | 1.66 | 1.24 | 0.759
0.439 | 0.691 | 0.672 | APEVIYATPGA [ABLtide_2014] | 0.868 | 3.19 | 8.54 | 2.58 | 0.879 | 9.6 | 0.839 | 11.6 | 34.4 | 8.17 | 5.95 | 1.14 | 8.2
0.805 | 1.06 | 3.46 | LGMSQYFRLFN [CPT2_Y217_D213G] | 0.766 | 0.601 | 0.839 | 0.966 | 0.704 | 0.64 | 3.24 | 0.499 | 0.581 | 0.364 | 0.381 | 1.26 | 0.58
1.32 | 0.9 | 1.64 | LNTFHYAGVSA [POLR2A_Y1109] | 0.56 | 0.434 | 0.415 | 0.656 | 0.407 | 0.45 | 0.584 | 0.469 | 0.552 | 0.419 | 0.464 | 0.722 | 0.449
0.645 | 0.854 | 0.625 | GADDSYFTVRS [ZAP70_Y492_A495V_YF] | 2.62 | 0.558 | 0.498 | 1.59 | 3.54 | 0.968 | 1.73 | 0.484 | 0.665 | 0.604 | 0.846 | 1 | 0.468
0.417 | 0.765 | 0.801 | RPSRQYATRDV [SCAMP3_Y35_L38R] | 0.352 | 0.366 | 0.356 | 0.598 | 0.473 | 0.412 | 0.352 | 0.381 | 0.615 | 0.396 | 0.407 | 0.498 | 0.274
0.814 | 0.859 | 0.866 | DNACQYMLTDR [MYH7_Y164_Y162C] | 0.691 | 0.6 | 0.612 | 1.02 | 0.614 | 0.567 | 0.959 | 0.523 | 0.766 | 0.571 | 1.24 | 1 | 0.532
0.721 | 1.23 | 1.09 | DLRGIYQKLVI | 0.854 | 1.81 | 1.32 | 0.826 | 0.825 | 6.68 | 0.869 | 7.47 | 1.76 | 6.38 | 5.56 | 1.4 | 4.99
0.564 | 0.802 | 0.471 | HYPDVYAREQL [ALX3_Y181] | 0.58 | 0.518 | 0.513 | 0.481 | 0.651 | 1.14 | 0.892 | 0.36 | 0.511 | 0.906 | 0.709 | 0.912 | 0.494
0.573 | 1.01 | 0.708 | HICTAYELVLA [DHCR24_Y190] | 2.2 | 0.891 | 1.02 | 1.8 | 3.12 | 0.779 | 1.6 | 8.27 | 1.13 | 0.598 | 2.77 | 1.74 | 1.56
0.493 | 0.824 | 0.727 | DQIDTYELSGA [DNM1_Y354_G359A] | 0.809 | 0.545 | 0.554 | 1.21 | 0.475 | 0.741 | 1.03 | 0.637 | 0.681 | 0.964 | 0.793 | 1.16 | 0.475
0.473 | 0.657 | 0.79 | SQETYYRVSNM [ABCD1_Y181_Q178E] | 4.94 | 4.42 | 2.95 | 1.37 | 6.81 | 3.97 | 3.85 | 0.549 | 1.33 | 2 | 2.96 | 0.805 | 3.7
0.376 | 0.585 | 0.467 | STEVIYQPRRK [STK11_Y36] | 0.539 | 0.437 | 0.527 | 0.603 | 0.424 | 0.683 | 0.612 | 0.473 | 1 | 0.52 | 0.704 | 0.523 | 0.643
0.492 | 0.929 | 0.56 | VTSLKYSTPPF [BRIP1_Y916_S919P_YF] | 0.517 | 0.342 | 0.493 | 0.607 | 0.491 | 0.52 | 0.599 | 0.38 | 0.595 | 0.472 | 0.436 | 0.841 | 0.457
0.594 | 0.972 | 0.905 | ETKEDYEKILV [ANXA1_Y335_G333E] | 0.743 | 0.616 | 0.598 | 1.09 | 0.509 | 0.572 | 1.01 | 0.598 | 0.779 | 0.501 | 0.484 | 1.23 | 0.53

SH2 binding enrichment (c-Src SH2) | SH2 binding enrichment (Grb2 SH2) | SH2 binding enrichment (SHP2-C SH2) | Sequence | phosphorylation enrichment (FGFR3) | phosphorylation enrichment (EPHB1) | phosphorylation enrichment (EPHB2) | phosphorylation enrichment (AncSZ) | phosphorylation enrichment (FGFR1) | phosphorylation enrichment (Hck) | phosphorylation enrichment (Jak2) | phosphorylation enrichment (Fer (mouse)) | phosphorylation enrichment (c-Abl (mouse)) | phosphorylation enrichment (Fyn) | phosphorylation enrichment (c-Src) | phosphorylation enrichment (Fes) | phosphorylation enrichment (MERTK)
3.12 | 1.86 | 3.4 | RNPLRYTSILT [OR51B6_Y130_S126N] | 0.738 | 0.478 | 0.482 | 0.689 | 0.582 | 0.498 | 0.892 | 0.474 | 0.697 | 0.532 | 0.65 | 0.794 | 0.484
0.567 | 1.13 | 1.1 | LSSISYVGCSL [ADGRD1_Y571] | 0.838 | 0.76 | 1.11 | 1.01 | 0.719 | 0.747 | 0.871 | 0.445 | 0.79 | 0.681 | 0.605 | 1.01 | 0.541
0.428 | 0.84 | 0.658 | SGVNKYSTAFG [GJB3_Y16] | 0.454 | 0.375 | 0.384 | 0.613 | 0.4 | 0.409 | 0.604 | 0.394 | 0.461 | 0.437 | 0.434 | 0.614 | 0.425
0.511 | 0.845 | 0.636 | DRLASYPEKVR [KRT13_Y118_L119P] | 0.413 | 0.323 | 0.413 | 0.395 | 0.403 | 0.329 | 0.403 | 0.329 | 0.41 | 0.35 | 0.331 | 0.57 | 0.34
0.606 | 0.832 | 0.614 | AFRHGYFDEEM [PLEC_Y2971_R2969H_YF] | 0.676 | 0.498 | 0.59 | 1.13 | 0.554 | 0.456 | 1.3 | 0.593 | 0.806 | 0.487 | 0.412 | 1.12 | 0.478
1.41 | 1.41 | 0.953 | YYHCTYKQRMI [CLEC12A_Y242_K244Q] | 7.01 | 0.63 | 0.527 | 1.64 | 9.07 | 1.1 | 1.73 | 0.452 | 1.4 | 0.693 | 0.773 | 1.01 | 3.68
3.16 | 18.9 | 1.26 | RGNMFYENSFA [EGFR_Y113_YF] | 0.744 | 0.483 | 0.663 | 1.21 | 0.785 | 0.479 | 1.01 | 2.57 | 0.533 | 0.997 | 0.922 | 0.836 | 0.727
0.543 | 1.01 | 0.726 | FRDMDYRSFPR [RBM10_Y41_YF] | 0.482 | 0.435 | 0.492 | 0.694 | 0.473 | 0.477 | 0.58 | 0.346 | 0.485 | 0.424 | 0.4 | 0.864 | 0.446
1.19 | 1.14 | 1.11 | LHRHAYPEQRQ [DPPA2_Y127] | 0.577 | 0.434 | 0.594 | 0.619 | 0.505 | 0.704 | 0.53 | 0.532 | 0.789 | 0.502 | 0.449 | 0.967 | 0.487
0.528 | 0.814 | 0.78 | TRFDEYLEVTK [MAP1A_Y2217_H2214Y_YF] | 0.823 | 0.789 | 0.723 | 1.32 | 0.949 | 0.619 | 1.25 | 0.501 | 0.731 | 0.571 | 0.444 | 1.22 | 0.819
0.554 | 0.786 | 0.667 | ECKLLYSQKEG [PTPN11_Y263_R265Q] | 0.705 | 0.643 | 0.759 | 0.865 | 0.532 | 0.682 | 0.986 | 0.607 | 0.724 | 0.489 | 0.541 | 1.08 | 0.494
0.982 | 1.02 | 0.999 | FAFQLYDLDPD [CHP2_Y123_R127P_YF] | 0.907 | 0.981 | 0.698 | 1.26 | 0.568 | 1.8 | 1.25 | 0.62 | 1.05 | 2.84 | 3.52 | 1.26 | 0.571
0.733 | 1.22 | 0.935 | LQLLGHRPVYS [CHST6_Y358_Y358H] | 0.506 | 0.462 | 0.47 | 0.615 | 0.425 | 0.512 | 0.552 | 0.479 | 0.418 | 0.535 | 0.381 | 0.701 | 0.374
0.562 | 0.735 | 0.952 | GGSTFYIDTNA [ACTL6A_Y69_P66S_YF] | 0.651 | 0.523 | 0.48 | 0.923 | 0.528 | 0.461 | 1.01 | 0.475 | 0.734 | 0.4 | 0.39 | 0.987 | 0.477
1.31 | 1.05 | 1.09 | SYVVRYNQPRV [GRIN2D_Y736_M733V] | 0.588 | 0.478 | 0.478 | 0.843 | 0.452 | 0.475 | 0.725 | 0.419 | 0.717 | 0.433 | 0.405 | 0.891 | 0.375
1.18 | 0.793 | 0.622 | CNRADYSKLAP [GNE_Y22] | 0.61 | 0.613 | 0.607 | 0.749 | 0.472 | 0.459 | 0.621 | 0.485 | 0.556 | 0.458 | 0.412 | 0.844 | 0.609

— the supplement of paper PMC10065799, “High-throughput profiling of sequence recognition by tyrosine kinases and SH2 domains using bacterial peptide display” (eLife, 2023)
